Experimental data reported in the supplement of paper PMC7125110.
± gives the standard error. For part of these data: Variants at the floor of the assay were thinned out.

B1: glmS ribozyme (parent)
chain: AUAAAAGCGCCAGAACUACAGAAAUGUAGUUGACGAGGAGGAGGUUUAUCGAAUUUUCGGCGGAUGCCUCCAAA

Legend:
Settings in all cases: with glucosamine-6-phosphate
glucosamine-6-phosphate [1] = variants of: B1; assay: kcat; higher = faster cleavage; RNA array
In short: (§1)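 Tracking of barcoded ribozyme variants used a hybridised Cy3 probe at 37 °C, after in situ transcription by E. coli RNA polymerase on sequenced MiSeq chips. The flowed solution held 40 μM to 10 mM glucosamine-6-phosphate in HEPES/KCl/Mg(OAc)2 buffer, and imaging ran over ~14 h. kobs was taken from exponential decay fits of normalised per-tile medians, and kcat and KM from weighted Michaelis–Menten fits.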

glucosamine-6-phosphate [2] = variants of: B1; assay: self-cleavage kobs at 2500 uM GlcN6P; higher = faster cleavage; RNA array
In short: as §1

glucosamine-6-phosphate [3] = variants of: B1; assay: KM; higher = weaker cofactor use; RNA array
In short: as §1

glucosamine-6-phosphate [4] = variants of: B1; assay: self-cleavage kobs at 160 uM GlcN6P; higher = faster cleavage; RNA array
In short: as §1

glucosamine-6-phosphate [5] = variants of: B1; assay: self-cleavage kobs at 640 uM GlcN6P; higher = faster cleavage; RNA array
In short: as §1

glucosamine-6-phosphate [6] = variants of: B1; assay: self-cleavage kobs at 10000 uM GlcN6P; higher = faster cleavage; RNA array
In short: as §1

glucosamine-6-phosphate [7] = variants of: B1; assay: self-cleavage kobs at 40 uM GlcN6P; higher = faster cleavage; RNA array
In short: as §1

| Variant | kcat (glucosamine-6-phosphate [1]) [s⁻¹] | self-cleavage kobs at 2500 uM GlcN6P (glucosamine-6-phosphate [2]) [s⁻¹] | KM (glucosamine-6-phosphate [3]) [µM] | self-cleavage kobs at 160 uM GlcN6P (glucosamine-6-phosphate [4]) [s⁻¹] | self-cleavage kobs at 640 uM GlcN6P (glucosamine-6-phosphate [5]) [s⁻¹] | self-cleavage kobs at 10000 uM GlcN6P (glucosamine-6-phosphate [6]) [s⁻¹] | self-cleavage kobs at 40 uM GlcN6P (glucosamine-6-phosphate [7]) [s⁻¹] |
| --- | --- | --- | --- | --- | --- | --- | --- |
| U31C G63U | < 1e-05 | < 1e-05 | – | – | – | – | – |
| A12G C68U | 0.000271 ± 1.9e-05 | 0.000137 ± 1.5e-05 | 2400 ± 390 | 3.11e-05 ± 1.2e-05 | 5.55e-05 ± 6.8e-06 | 0.000219 ± 1.5e-05 | – |
| A42U U46G | 5.79e-05 ± 3.4e-06 | 3.86e-05 ± 1.2e-05 | 901 ± 260 | – | 2.81e-05 ± 1.4e-05 | 5.41e-05 ± 8.3e-06 | – |
| A15U G66A | 0.00705 ± 0.002 | 0.00183 ± 0.00057 | 7800 ± 2800 | 0.000124 ± 2.4e-05 | 0.000781 ± 0.00023 | 0.00391 ± 0.00065 | 4.82e-05 ± 1.6e-05 |
| A12C U49C | < 1e-05 | – | – | – | – | < 1e-05 | – |
| A42G U54G | 0.0467 ± 0.012 | 0.0229 ± 0.0093 | 2110 ± 650 | 0.00287 ± 0.00056 | 0.0108 ± 0.0031 | 0.0409 ± 0.011 | 0.00111 ± 0.00022 |
| C16G U47A | 0.00274 ± 0.00078 | 0.00124 ± 0.0002 | 1710 ± 700 | 0.00027 ± 3.9e-05 | 0.000755 ± 0.00013 | 0.00329 ± 0.00047 | 6.21e-05 ± 9.9e-06 |
| G7U G13A | < 1e-05 | < 1e-05 | – | – | – | – | < 1e-05 |
| C50G U55G | 3.86e-05 ± 1.8e-05 | 4.97e-05 ± 1.6e-05 | – | 7.28e-05 ± 1.9e-05 | – | – | – |
| G44U U45A | 0.000658 ± 0.00016 | 0.000478 ± 9.7e-05 | 1820 ± 740 | – | 0.000175 ± 3.5e-05 | 0.00046 ± 0.00014 | – |
| A39G C50A G51U C71G | 1.15e-05 ± 3.2e-06 | – | – | – | – | – | – |
| G7C G37C | < 1e-05 | < 1e-05 | – | – | – | < 1e-05 | < 1e-05 |
| A15G U46A | 0.00453 ± 0.00029 | 0.00258 ± 0.00041 | 1890 ± 170 | 0.0003 ± 9.6e-05 | 0.00114 ± 0.00035 | 0.00382 ± 0.00063 | 9.83e-05 ± 1.5e-05 |
| A53U G60A | < 1e-05 | – | – | – | – | – | < 1e-05 |
| A12C G13U C71G | 1.5e-05 ± 5.4e-06 | – | – | – | – | – | – |
| G38U A48C A52C C71A | < 1e-05 | – | – | – | – | < 1e-05 | < 1e-05 |
| A33C | 0.000505 ± 2.5e-05 | 0.000541 ± 0.00018 | 2800 ± 240 | 2.95e-05 ± 1.7e-06 | 9.27e-05 ± 1.9e-06 | 0.000395 ± 6.8e-06 | 1.4e-05 ± 2.6e-06 |
